According to patent US20240132578A1:

What was measured:
Test in all cases: cell-based or functional assay
[1] = molecular target: HIV-1 Env of isolate 92UG037 (pseudovirus) (HIV-1)
[2] = molecular target: HIV-1 Env of isolate 94UG103 (pseudovirus) (HIV-1)
[3] = molecular target: HIV-1 92RW020 Env (HIV-1)
[4] = molecular target: HIV-1 Env of isolate MGRM-AE-006 (pseudovirus) (HIV-1)
[5] = molecular target: HIV-1 Env of isolate 93UG077 (pseudovirus) (HIV-1)
[6] = molecular target: HIV-1 Env of isolate MGRM-AE-005 (pseudovirus) (HIV-1)
[7] = molecular target: HIV-1 Env of isolate 98CN006 (HIV-1)
[8] = molecular target: HIV-1 Env of isolate 92UG031 (pseudovirus) (HIV-1)
[9] = molecular target: HIV-1 Env of isolate MGRM-AE-004 (pseudovirus) (HIV-1)
[10] = molecular target: HIV-1 Env of isolate MGRM-C-020 (subtype C), on pseudovirus (HIV-1)
[11] = molecular target: HIV-1 Env of isolate 93WR029 (pseudovirus) (HIV-1)
[12] = molecular target: HIV-1 Env of isolate 92WR020 (pseudovirus) (HIV-1)
[13] = molecular target: HIV-1 Env of isolate 92WR021 (pseudovirus) (HIV-1)
[14] = molecular target: HIV-1 Env of isolate 92WR024 (pseudovirus) (HIV-1)

Chain of 4980_N08 (PGT-143) (antibody) (VH): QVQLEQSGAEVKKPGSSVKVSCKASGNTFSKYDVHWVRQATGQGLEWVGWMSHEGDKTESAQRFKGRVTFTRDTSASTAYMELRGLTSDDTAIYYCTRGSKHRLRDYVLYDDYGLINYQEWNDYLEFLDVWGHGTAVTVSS
Chain of 4980_N08 (PGT-143) (antibody) (VL): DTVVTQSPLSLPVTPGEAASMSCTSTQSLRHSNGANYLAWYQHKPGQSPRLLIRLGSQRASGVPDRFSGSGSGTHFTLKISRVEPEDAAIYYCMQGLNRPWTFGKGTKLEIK
Chain of 4993_K13 (PGT-141) (antibody) (VH): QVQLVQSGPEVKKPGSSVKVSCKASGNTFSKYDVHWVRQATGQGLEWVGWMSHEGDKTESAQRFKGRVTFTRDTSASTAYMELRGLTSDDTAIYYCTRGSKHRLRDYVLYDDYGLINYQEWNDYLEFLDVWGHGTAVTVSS
Chain of 4993_K13 (PGT-141) (antibody) (VL): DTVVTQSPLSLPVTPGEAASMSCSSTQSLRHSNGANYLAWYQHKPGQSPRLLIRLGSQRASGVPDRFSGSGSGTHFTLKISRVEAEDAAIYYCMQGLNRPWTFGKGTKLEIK
Chain of 4970_K22 (PGT-144) (antibody) (VH): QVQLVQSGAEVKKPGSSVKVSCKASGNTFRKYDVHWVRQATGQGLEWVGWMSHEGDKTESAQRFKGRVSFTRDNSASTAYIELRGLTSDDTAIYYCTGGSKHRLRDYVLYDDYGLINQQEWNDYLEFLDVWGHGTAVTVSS
Chain of 4970_K22 (PGT-144) (antibody) (VL): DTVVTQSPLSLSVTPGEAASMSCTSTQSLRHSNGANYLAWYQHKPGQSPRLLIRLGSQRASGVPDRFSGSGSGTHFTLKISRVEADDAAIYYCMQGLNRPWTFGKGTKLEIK

Substance	IC50 (µg/mL), single-round pseudovirus neutralization [1] [µg/mL]	IC50 (µg/mL), single-round pseudovirus neutralization [2] [µg/mL]	IC50, pseudovirus neutralization [3] [µg/mL]	IC50 (µg/mL), single-round pseudovirus neutralization [4] [µg/mL]	IC50 (µg/mL), single-round pseudovirus neutralization [5] [µg/mL]	IC50 (µg/mL), single-round pseudovirus neutralization [6] [µg/mL]	IC50 (µg/mL), pseudovirus neutralization [7] [µg/mL]	IC50 (µg/mL), single-round pseudovirus neutralization [8] [µg/mL]	IC50 (µg/mL), single-round pseudovirus neutralization [9] [µg/mL]	IC50, single-round pseudovirus neutralization [10] [µg/mL]	IC50 (µg/mL), single-round pseudovirus neutralization [11] [µg/mL]	IC50 (µg/mL), single-round pseudovirus neutralization [12] [µg/mL]	IC50 (µg/mL), single-round pseudovirus neutralization [13] [µg/mL]	IC50 (µg/mL), single-round pseudovirus neutralization [14] [µg/mL]
4970_K22 (PGT-144) (antibody)	8.24	> 50	> 10	> 50	> 50	> 50	> 50	2.17	0.104	1.29	4.39	> 50	> 50	16.3
4980_N08 (PGT-143) (antibody)	0.854	> 50	> 10	> 50	> 50	> 50	> 50	0.095	0.002	0.797	0.053	> 50	> 50	0.122
4993_K13 (PGT-141) (antibody)	1.28	> 50	> 10	> 50	> 50	> 50	> 50	0.093	> 50	1.34	0.019	> 50	> 50	0.175
